{
  "source": "patent US20050193443A1",
  "molecular_target": "maize VIVIPAROUS-1 (VP1) B3-domain transcription factor (maize) (UniProt P26307)",
  "sequence (P26307 whole entry)": "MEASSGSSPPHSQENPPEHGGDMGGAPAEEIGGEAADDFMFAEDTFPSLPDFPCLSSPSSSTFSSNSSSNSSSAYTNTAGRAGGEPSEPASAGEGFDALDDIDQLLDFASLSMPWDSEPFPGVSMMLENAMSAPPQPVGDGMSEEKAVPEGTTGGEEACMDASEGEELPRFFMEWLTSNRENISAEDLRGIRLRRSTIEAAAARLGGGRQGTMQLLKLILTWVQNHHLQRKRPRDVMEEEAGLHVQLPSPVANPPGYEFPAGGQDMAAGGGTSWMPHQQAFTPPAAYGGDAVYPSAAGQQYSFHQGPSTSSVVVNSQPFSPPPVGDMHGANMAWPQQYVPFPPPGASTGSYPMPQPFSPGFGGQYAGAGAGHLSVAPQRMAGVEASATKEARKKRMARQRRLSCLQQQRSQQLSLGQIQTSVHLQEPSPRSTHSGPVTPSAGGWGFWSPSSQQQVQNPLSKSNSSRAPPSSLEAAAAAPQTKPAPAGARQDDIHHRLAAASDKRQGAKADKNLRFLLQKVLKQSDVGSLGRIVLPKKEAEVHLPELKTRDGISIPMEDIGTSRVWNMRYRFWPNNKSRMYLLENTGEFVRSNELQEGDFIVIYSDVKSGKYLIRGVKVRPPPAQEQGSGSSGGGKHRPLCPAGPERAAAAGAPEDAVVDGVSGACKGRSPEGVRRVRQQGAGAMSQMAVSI",
  "assay": "cell-based or functional assay",
  "data": [
    {"substance": "ABF3 (ABA-Response Element-Binding Factor 3) (from UniProt Q9M7Q3 1-454)", "values": [
      {"measurement": "ABA-inducible Em-GUS reporter gene expression, transiently co-transformed rice protoplasts; synergy relative to that of ABI5 with VP1", "result": 2, "unit": "fold"}
    ]}
  ]
}
